Results as given in patent publication US6906033 (dated 2005).
Substitutions are numbered along the chain they refer to.

T1: human factor Xa (human, UniProt P00742 41-179; P00742 235-488)
T1 chain 1: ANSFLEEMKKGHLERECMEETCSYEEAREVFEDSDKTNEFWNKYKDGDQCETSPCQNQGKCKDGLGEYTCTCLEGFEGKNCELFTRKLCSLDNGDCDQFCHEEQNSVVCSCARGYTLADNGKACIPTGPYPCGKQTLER
T1 chain 2: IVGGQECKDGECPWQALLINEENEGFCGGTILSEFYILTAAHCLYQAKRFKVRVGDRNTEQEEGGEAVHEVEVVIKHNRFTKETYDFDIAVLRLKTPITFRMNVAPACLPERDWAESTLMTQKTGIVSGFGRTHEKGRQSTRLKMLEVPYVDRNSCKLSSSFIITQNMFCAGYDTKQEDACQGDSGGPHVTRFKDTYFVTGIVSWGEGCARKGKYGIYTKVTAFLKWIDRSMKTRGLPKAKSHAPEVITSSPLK

T2: human factor XIIa (human, UniProt P00748 20-615, biotinylated with Biotin Ester (Zymed); sites not stated)
T2 chain: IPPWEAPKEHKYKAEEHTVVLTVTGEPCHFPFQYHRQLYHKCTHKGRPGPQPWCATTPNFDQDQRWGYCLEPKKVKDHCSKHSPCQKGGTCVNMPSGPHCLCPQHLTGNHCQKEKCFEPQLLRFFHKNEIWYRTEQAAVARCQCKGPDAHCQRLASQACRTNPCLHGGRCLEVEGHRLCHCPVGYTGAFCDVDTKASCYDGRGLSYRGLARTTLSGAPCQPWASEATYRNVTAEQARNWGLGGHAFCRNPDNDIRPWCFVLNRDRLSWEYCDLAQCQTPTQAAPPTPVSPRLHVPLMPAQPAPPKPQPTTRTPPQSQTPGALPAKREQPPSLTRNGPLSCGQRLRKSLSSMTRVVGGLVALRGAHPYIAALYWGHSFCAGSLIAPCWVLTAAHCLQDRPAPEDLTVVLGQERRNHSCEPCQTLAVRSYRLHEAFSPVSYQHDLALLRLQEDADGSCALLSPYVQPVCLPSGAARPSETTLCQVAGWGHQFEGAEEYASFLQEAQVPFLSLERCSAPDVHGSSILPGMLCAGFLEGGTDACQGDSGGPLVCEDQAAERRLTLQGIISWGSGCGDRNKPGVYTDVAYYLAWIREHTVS

B1: wild-type KPI (-4→57) (peptide)
chain: LDKREVVREVCSEQAETGPCRAMISRWYFDVTEGKCAPFFYGGCGGNRNNFDTEEYCMAVCGSAI
B2: TW6202 (protein)
chain: EVVREVCSEQAETGPCRAGIWRWYFDVTEGKCAPFFYGGCGGNRNNFDTEEYCMAVCGSAI
B3: TW6203 (protein)
chain: B2 chain with W21P
B4: DD113 (protein)
chain: B2 chain with G19L, W21P
B5: TW6190 (protein)
chain: B2 chain with G19A, W21S, G41Y
B6: TW6169 (protein)
chain: B2 chain with G19L, W21L
B7: BG003 (protein)
chain: B2 chain with G19M, I20L, W21H
B8: TW6201 (protein)
chain: B2 chain with W21Y
B9: DD114 (protein)
chain: B2 chain with G19A, W21S, G41R
B10: TW6184 (protein)
chain: B2 chain with G19M, I20H, W21Y
B11: TW6204 (protein)
chain: B2 chain with G19A, W21S, R22A
B12: TW6205 (protein)
chain: B2 chain with G19L, W21S, R22A
B13: TW6183 (protein)
chain: B2 chain with G19M, I20H, W21F
B14: TW6175 (protein)
chain: B2 chain with G19L, W21F
B15: DD185 (peptide)
chain: B2 chain with G19A, W21F
B16: TW6167 (protein)
chain: B2 chain with T13P, G19M, W21S
B17: DD108 (protein)
chain: B2 chain with G19A, W21S
B18: DD109 (protein)
chain: B2 chain with G19I, W21S
B19: DD110 (protein)
chain: B2 chain with G19L, W21S
B20: KPI (-4-57) (peptide)
chain: B1 chain
B21: TW6151 (protein)
chain: B2 chain with G19M, W21S, G41E
B22: TW6139 (protein)
chain: B2 chain with G19M, W21S, G41H
B23: TW6153 (protein)
chain: B2 chain with G19M, W21S, G41I
B24: TW6161 (protein)
chain: B2 chain with G19M, W21S, G41Y
B25: DD129 (protein)
chain: B2 chain with G19L, I20F, W21S
B26: TW6159 (protein)
chain: B2 chain with G19M, W21S, G41V
B27: BG002 (protein)
chain: B2 chain with G19L, I20L, W21S
B28: DD101 (protein)
chain: B2 chain with G19M, W21S, G41D
B29: TW122 (protein)
chain: EVCSEQAETGPCRAMISRWYFDVTEGKCAPFFYGGCGANRNNFDTEEYCMAVCGSAI
B30: TW6178 (protein)
chain: B2 chain with G19M, W21S, G42R
B31: TW6188 (protein)
chain: B2 chain with G19M, W21Y, G41Y
B32: TW6189 (protein)
chain: B2 chain with G19M, G41Y
B33: TW6187 (protein)
chain: B2 chain with G19M, W21F, G41Y
B34: TW6186 (protein)
chain: B2 chain with G19M, I20H, W21S, G41Y
B35: TW6185 (peptide)
chain: B2 chain with G19M, I20H

Each binder was assayed against T3, human plasma kallikrein (human, UniProt P03952 20-638) (assay: enzyme inhibition).
T3 sequence (P03952 20-638): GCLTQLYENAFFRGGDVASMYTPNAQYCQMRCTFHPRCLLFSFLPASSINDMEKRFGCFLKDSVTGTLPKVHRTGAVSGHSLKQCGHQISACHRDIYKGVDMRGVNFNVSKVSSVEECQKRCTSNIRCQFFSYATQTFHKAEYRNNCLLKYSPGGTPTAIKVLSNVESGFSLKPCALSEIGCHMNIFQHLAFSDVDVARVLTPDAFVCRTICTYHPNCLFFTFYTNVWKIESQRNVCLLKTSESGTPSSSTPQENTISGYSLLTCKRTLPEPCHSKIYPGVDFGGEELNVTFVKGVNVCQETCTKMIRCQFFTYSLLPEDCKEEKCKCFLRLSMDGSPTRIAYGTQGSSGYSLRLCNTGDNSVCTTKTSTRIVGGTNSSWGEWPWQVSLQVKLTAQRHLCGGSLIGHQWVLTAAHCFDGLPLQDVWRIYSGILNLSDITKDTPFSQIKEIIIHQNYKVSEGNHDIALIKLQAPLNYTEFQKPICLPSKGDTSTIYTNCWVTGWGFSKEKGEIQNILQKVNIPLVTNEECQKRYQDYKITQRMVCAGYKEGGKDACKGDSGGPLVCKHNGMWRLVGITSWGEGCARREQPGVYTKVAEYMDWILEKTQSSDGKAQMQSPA
B1 was tested, and the Ki was 45 nM.

Target: T3, human plasma kallikrein
Experiment: enzyme inhibition
Remark: another data set of the same source
B2 gave a Ki of 128 nM. For B3, the Ki was 31.2 nM. B4 was tested, and the Ki was 0.85 nM. In the case of B5, the Ki is reported as 0.83 nM. B6 showed a Ki of 1.2 nM. B7 showed a Ki of 36 nM. Work on B8 yielded a Ki of 34.6 nM. Work on B9 yielded a Ki of 0.7 nM.

Target: T1, human factor Xa
Experiment: enzyme inhibition
For B10, the Ki was 214 nM. Binder B4 has a Ki of 74 nM. Binder B5 has a Ki of 1400 nM. For B6, the Ki was 111 nM. In the case of B11, the Ki is reported as 87 nM. Binder B12 has a Ki of 29 nM. B13 showed a Ki of 159 nM. B14 gave a Ki of 56 nM.

Target: T2, human factor XIIa
Experiment: enzyme inhibition
In the case of B2, the Ki is reported as 1240 nM. B3 gave a Ki of 5040 nM. For B10, the Ki was 14000 nM. For B4, the Ki was 293 nM. In the case of B5, the Ki is reported as 589 nM. B6 was tested, and the Ki was 619 nM. Work on B11 yielded a Ki of 147 nM. With B12 the Ki was 195 nM. For B7, the Ki was 467 nM. For B8, the Ki was 419 nM. With B9 the Ki was 224 nM. B13 was tested, and the Ki was 12400 nM. B14 showed a Ki of 35 nM.

The binders below were run against Plasmin (assay: enzyme inhibition).
Binder B15 has a Ki of 8.71 nM.

Target: T3, human plasma kallikrein
Experiment: enzyme inhibition
Remark: another data set of the same source
B16 gave a Ki of 61 nM. B17 was tested, and the Ki was 1.7 nM. With B1 the Ki was 45 nM. Work on B18 yielded a Ki of 9.5 nM. Work on B19 yielded a Ki of 2.1 nM.

Target: T1, human factor Xa
Experiment: enzyme inhibition
Remark: another data set of the same source
For B16, the Ki was 288 nM. Binder B17 has a Ki of 123 nM. Work on B1 yielded a Ki of 161 nM. B18 showed a Ki of 421 nM. B19 showed a Ki of 55 nM.

Target: T2, human factor XIIa
Experiment: enzyme inhibition
Remark: another data set of the same source
Work on B16 yielded a Ki of 3640 nM. Binder B17 has a Ki of 1600 nM. With B1 the Ki was 3720 nM. For B18, the Ki was 1680 nM. In the case of B19, the Ki is reported as 624 nM.

Target: Plasmin
Experiment: enzyme inhibition
Remark: another data set of the same source
With B20 the Ki was 34 nM.

Target: T3, human plasma kallikrein
Experiment: enzyme inhibition
Remark: another data set of the same source
B21 gave a Ki of 163 nM. Binder B22 has a Ki of 19 nM. In the case of B23, the Ki is reported as 11.2 nM. Binder B24 has a Ki of 7.5 nM. B25 showed a Ki of 3.6 nM. Binder B26 has a Ki of 17 nM. Work on B27 yielded a Ki of 0.98 nM. For B28, the Ki was 64 nM. For B29, the Ki was 32 nM. Work on B30 yielded a Ki of 16 nM.

Target: T1, human factor Xa
Experiment: enzyme inhibition
Remark: another data set of the same source
B21 gave a Ki of 954 nM. B22 showed a Ki of 78 nM. B23 gave a Ki of 36 nM. B24 showed a Ki of 8.7 nM. With B25 the Ki was 6 nM. In the case of B26, the Ki is reported as 64 nM. In the case of B27, the Ki is reported as 60 nM. B29 showed a Ki of 581 nM.

Target: T2, human factor XIIa
Experiment: enzyme inhibition
Remark: another data set of the same source
With B21 the Ki was 1160 nM. Binder B22 has a Ki of 152 nM. B23 showed a Ki of 65 nM. Binder B24 has a Ki of 1510 nM. B25 was tested, and the Ki was 1860 nM. Work on B27 yielded a Ki of 403 nM. B28 showed a Ki of 924 nM. B30 gave a Ki of 444 nM.

Target: T3, human plasma kallikrein
Experiment: enzyme inhibition
Remark: another data set of the same source
B31 showed a Ki of 4 nM. Work on B32 yielded a Ki of 4 nM. With B33 the Ki was 3.8 nM. For B34, the Ki was 0.48 nM.

Target: T1, human factor Xa
Experiment: enzyme inhibition
Remark: another data set of the same source
In the case of B31, the Ki is reported as 24 nM. B32 gave a Ki of 34 nM. For B33, the Ki was 15 nM. With B34 the Ki was 11 nM.

Target: T2, human factor XIIa
Experiment: enzyme inhibition
Remark: another data set of the same source
In the case of B31, the Ki is reported as 419 nM. With B33 the Ki was 92 nM. Work on B34 yielded a Ki of 186 nM.

Target: Plasmin
Experiment: enzyme inhibition
Remark: another data set of the same source
B35 gave a Ki of 18.6 nM.
